Assay results from US20090068195A1 (Pfizer, published 2009).

B1: sIL-13Rα2-Fc (soluble human IL-13 receptor alpha 2 Fc fusion) (Fc fusion, UniProt Q14627 27-343, looked up, not shown: a dimerising Fc or GST)
chain: DTEIKVNPPQDFEIVDPGYLGYLYLQWQPPLSLDHFKECTVEYELKYRNIGSETWKTIITKNLHYKDGFDLNKGIEAKIHTLLPWQCTNGSEVQSSWAETTYWISPQGIPETKVQDMDCVYYNWQYLLCSWKPGIGVLLDTNYNLFYWYEGLDHALQCVDYIKADGQNIGCRFPYLEASDYKDFYICVNGSSENKPIRSSYFTFQLQNIVKPLPPVYLTFTRESSCEIKLKWSIPLGPIPARCFDYEIEIREDDTTLVTATVENETYTLKTTNETRQLCFVVRSKVNIYCSDDGIWSEWSDKQCWEGEDLSKKTLLR
B3: non-human primate (cynomolgus monkey) IL-13 (ligand)
chain: SPVPPSTALKELIEELVNITQNQKAPLCNGSMVWSINLTAGVYCAALESLINVSGCSAIEKTQRMLNGFCPHKVSAGQFSSLRVRDTKIEVAQFVKDLLVHLKKLFREGQFN
notes: the construct used in the assays is not described; Also used here for endogenous IL-13 of cynomolgus monkeys in the PK-PD fits; also called NHP IL-13; NHP-IL-13

Assays:
[1] = biological target: native human IL-13 (human, UniProt P35225 34-146, limits assumed); assay: cell-based or functional assay
[2] = biological target: B3; assay: sandwich ELISA for total IL-13 in monkey serum, non-human primate IL-13 standards
Method: The concentrations of total IL-13 in serum samples obtained from hMJ2-7v.2-11-treated monkeys were determined using quantitative ELISA. […] After blocking and washing, the serum samples containing IL-13 from in vivo studies or the non-human primate IL-13 standards were incubated on the plate to allow for binding to the anti-IL-13 capture antibody. […] Streptavidin conjugated to HRP and the enzyme substrate 3,3′,5,5′-tetramethylbenzidine (TMB) peroxidase were added and optical densities were measured at 450 nm. The low limit of quantitation of the assay was approximately 0.15 ng/mL.

[3] = biological target: B1; assay: SPR (BIACORE): sIL-13Ralpha2-Fc amine-coupled to a CM5 chip, NHP IL-13 injected at 100 nM
Method: (§1) sIL-13RI2-Fc was directly coated onto a CM5 chip by standard amine coupling. NHP-IL-13 at 100 nM concentration was injected, and its binding to the immobilized IL-13RI2-Fc was detected by BIACORE3. An additional injection of 100 nM of anti IL-13 antibodies was added, and changes in binding were monitored.

[4] = biological target: B3; assay: cell-based or functional assay
[5] = biological target: T1, FLAG-tagged NHP IL-13 (cynomolgus monkey, UniProt Q5I6E4 21-132 (Macaca thibetana entry), limits assumed); assay: competition ELISA: IL-13Ralpha1-Fc coated on the plate, FLAG-tagged NHP IL-13 added with rising MJ2-7; the blocked partner is IL-13Ralpha1-Fc
T1 chain: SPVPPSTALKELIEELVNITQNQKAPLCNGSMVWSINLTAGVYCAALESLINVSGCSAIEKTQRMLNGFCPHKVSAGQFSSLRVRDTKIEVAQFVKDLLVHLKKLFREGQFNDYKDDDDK
Method: (§2) The ability of MJ2-7 to inhibit binding of NHP IL-13 to IL-13RI1 and IL-13RI2 was tested by ELISA. Recombinant soluble forms of human IL-13RI1-Fc and IL-13RI2-Fc were coated onto ELISA plates. FLAG-tagged NHP IL-13 was added in the presence of increasing concentrations of MJ2-7. […] This provides a basis for the neutralization of IL-13 bioactivity by MJ2-7.

[6] = biological target: T1, FLAG-tagged NHP IL-13; assay: competition ELISA: IL-13Ralpha2-Fc coated on the plate, FLAG-tagged NHP IL-13 added with rising MJ2-7; the blocked partner is IL-13Ralpha2-Fc
Method: as §2

[7] = biological target: T2, NHP-IL-13 in a complex with immobilised hu IL-13Rα2-Fc (cynomolgus monkey; human, UniProt Q14627 27-343, limits assumed); assay: SPR (BIACORE): antibody injected over NHP IL-13 held by immobilised sIL-13Ralpha2-Fc
T2 construct: Pre-formed ligand-receptor complex on a CM5 chip; not shown: Fc part
Method: as §1

native human IL-13, sequence (P35225 other isoform, or with tags, fused parts or gaps limits assumed): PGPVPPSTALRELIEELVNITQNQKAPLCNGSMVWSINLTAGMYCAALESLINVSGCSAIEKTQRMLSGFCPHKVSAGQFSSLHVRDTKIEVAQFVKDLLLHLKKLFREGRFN

Binder: B1
- STAT6 phosphorylation in HT-29 cells, IC50 [1]: 0.33 nM

B2: humanized 13.2v.2 (antibody, V domains shown)
VH: EVQLVESGGGLVQPGGSLRLSCAASGFTFISYAMSWVRQAPGKGLEWVASISSGGNTYYPDSVKGRFTISRDNAKNSLYLQMNSLRAEDTAVYYCARLDGYYFGFAYWGQGTLVTVSS
VL: DIQMTQSPSSLSASVGDRVTITCKASESVDNYGKSLMHWYQQKPGKAPKLLIYRASNLESGVPSRFSGSGSGTDFTLTISSLQPEDFATYYCQQSNEDPWTFGGGTKVEIK
notes: Humanized form of mAb13.2; also called h13.2v2; h13.2v.2
- binding result [2]: binds

Binder: B3
- binding result [3]: binds

B4: humanized MJ2-7 v.2-11 (antibody, human IgG1, kappa, V domains shown)
VH: EVQLVESGGGLVQPGGSLRLSCAASGFNIKDTYIHWVRQAPGKGLEWIGRIDPANDNIKYDPKFQGRFTISADNAKNSAYLQMNSLRAEDTAVYYCARSEENWYDFFDYWGQGTLVTVSS
VL: DIQMTQSPSSLSASVGDRVTITCRSSQSIVHSNGNTYLEWYQQKPGKAPKLLIYKVSNRFSGVPSRFSGSGSGTDFTLTISSLQPEDFATYYCFQGSHIPYTFGGGTKVEIKR
- STAT6 phosphorylation in HT-29 cells, IC50 [1]: 0.52 nM

B5: mouse monoclonal antibody C65 (antibody, V domains shown)
VH: QVQLKESGPGLVAPSQSLSITCTVSGFSLTGYGVNWVRQPPGKGLEWLGIIWGDGSTDYNSALKSRLIINKDNSKSQVFLKMNSLQTDDTARYFCARDKTFYYDGFYRGRMDYWGQGTSVTVSS
VL: DVQMIQSPSSLSASLGDIVTMTCQASQGTSINLNWFQQKPGKAPKLLIFGASNLEDGVPSRFSGSRYGTNFTLTISSLEDEDMATYFCLQHSYLPWTFGGGTKLEIK
- fold decrease in monocyte CD23 expression, potency against MJ2-7 [4]: ~20 fold
- fold decrease in STAT6 phosphorylation in HT-29 cells, potency against MJ2-7 [1]: ~20 fold

B6: mouse monoclonal antibody MJ 2-7 (antibody, mouse IgG1, V domains shown)
VH: EVQLQQSGAELVKPGASVKLSCTGSGFNIKDTYIHWVKQRPEQGLEWIGRIDPANDNIKYDPKFQGKATITADTSSNTAYLQLNSLTSEDTAVYYCARSEENWYDFFDYWGQGTTLTVSS
VL: DVLMTQTPLSLPVSLGDQASISCRSSQSIVHSNGNTYLEWYLQKPGQSPKLLIYKVSNRFSGVPDRFSGSGSGTDFTLKISRVEAEDLGVYYCFQGSHIPYTFGGGTKLEIK
notes: also called mAb7.1.1; murine MJ2-7
- IC50 (read off the curve) [5]: ~0.4 nM
- CD23 expression, IC50 [4]: ~0.242 nM
- STAT6 phosphorylation in HT-29 cells, IC50 [1]: 0.48 nM
- STAT6 phosphorylation, IC50 [1]: ~0.293 nM
- tenascin C production by BEAS-2B cells, IC50 [1]: ~0.1 nM
- IC50 (read off the curve) [6]: ~0.08 nM
- binding result [7]: no binding
